According to patent EP3409295A1 (priority 2016, dated 2017):
Like-named read-outs stand apart in the source and are kept apart here.

Tests used:
[1] = SD rats; for F: oral 50 mg/kg versus intravenous 10 mg/kg
in vivo = details: female, SD, rat, iv, 5 mg/kg
ICR mice [2] = details: mouse, in vivo, iv
ICR mice [3] = details: mouse, in vivo, iv; remark: listed apart in the source
rats = details: rat, in vivo
ICR mice [4] = assay: Tail flick test (heat radiation pain tester); type: in vivo; details: tail vein, morphine 5 mg/kg, other doses as in the writhing test
[5] = intravenous administration, 10 mg/kg

Row | SMILES | AUCINF [1, 5] [ng·h/mL] | AUClast [1, 5] [ng·h/mL] | CL [1, 5] [mL/min/k g] | MRTINF [1, 5] [h] | T1/2 [1, 5] [h] | Vss [1, 5] [L/kg] | Vz [1, 5] [L/kg] | F [1] [%] | AUCINF ([1]; oral administration, 50 mg/kg) [ng·h/mL] | AUClast ([1]; oral administration, 50 mg/kg) [ng·h/mL] | Cmax ([1]; oral administration, 50 mg/kg) | T1/2 ([1]; oral administration, 50 mg/kg) [h] | Tmax ([1]; oral administration, 50 mg/kg) [h] | level at 10 min (in vivo) [ng/mL] | level at 1 h (in vivo) [ng/mL] | level at 3 h (in vivo) [ng/mL] | tissue level at time at 10 min (in vivo) [ng/g] | tissue level at time at 1 h (in vivo) [ng/g] | tissue level at time at 3 h (in vivo) [ng/g] | also measured
1 | CN1CC[C@]23c4c5ccc(O)c4O[C@H]2[C@@H](OCCOCCOCCO[C@H]2C=C[C@H]4[C@H]6Cc7ccc(O)c8c7[C@@]4(CCN6C)[C@H]2O8)C=C[C@H]3[C@H]1C5 [α-6-O-PEG3-(morphine)2] | 112 | 104 | 296 | 2.18 | 2.31 | 27.8 | 43 | 3.2 | 18 | 15 | 12 | 5.1 | 2 | 1020 | 119 | 32 | 387 | 262 | 167 | –
2 | CN1CC[C@]23c4c5ccc(O)c4O[C@H]2[C@@H](OCCOCCO[C@H]2C=C[C@H]4[C@H]6Cc7ccc(O)c8c7[C@@]4(CCN6C)[C@H]2O8)C=C[C@H]3[C@H]1C5 [α-6-O-PEG2-(morphine)2] | 107 | 90 | 307 | 2.08 | 2.88 | 37.2 | 52.1 | 4.8 | 35 | 27 | 18 | 4.0 | 2 | 1210 | 123 | 43 | 554 | 342 | 221 | –
3 | CN1CC[C@]23c4c5ccc(O)c4O[C@H]2[C@@H](OCCOCCOCCOCCOCCOCCOCCO[C@H]2C=C[C@H]4[C@H]6Cc7ccc(O)c8c7[C@@]4(CCN6C)[C@H]2O8)C=C[C@H]3[C@H]1C5 [α-6-O-PEG7-(morphine)2] | – | – | – | – | – | – | – | – | – | – | – | – | – | 1170 | 117 | 71 | 177 | 111 | 105 | –
4 | COCCOCCOCCOCCOCCOCCO[C@H]1C=C[C@H]2[C@H]3Cc4ccc(O)c5c4[C@@]2(CCN3C)[C@H]1O5 [α-6-O-mPEG6-morphine, reference compound] | – | – | – | – | – | – | – | – | – | – | – | – | – | – | – | – | – | – | – | Number of Writhing (ICR mice [2]; 10 mg/kg): 15.3±3.4
5 | CN1CC[C@]23c4c5ccc(O)c4O[C@H]2[C@@H](OCCOCCOCCOCCOCCOCCO[C@H]2C=C[C@H]4[C@H]6Cc7ccc(O)c8c7[C@@]4(CCN6C)[C@H]2O8)C=C[C@H]3[C@H]1C5 [α-6-O-PEG6-(morphine)2] | 158 | 144 | 204 | 3.22 | 3.42 | 38.6 | 57.7 | 21.2 | 84 | 73 | 54 | 4.8 | 3 | 1200 | 123 | 72 | 163 | 133 | 111 | Number of Writhing (ICR mice [2]; 10 mg/kg): 24.3±3.4
6 | CN1CC[C@]23c4c5ccc(O)c4O[C@H]2[C@@H](OCCO[C@H]2C=C[C@H]4[C@H]6Cc7ccc(O)c8c7[C@@]4(CCN6C)[C@H]2O8)C=C[C@H]3[C@H]1C5 [α-6-O-PEG1-(morphine)2] | 98 | 83 | 342 | 2.46 | 2.59 | 47.3 | 72 | 3.7 | 92 | 78 | 56 | 11 | 1.0 | 891 | 138 | 38 | 687 | 299 | 183 | –
7 | COc1ccc2c3c1O[C@H]1[C@@H](O)C=C[C@H]4[C@@H](C2)N(C)CC[C@@]341 [Codeine, codeine] | – | – | – | – | – | – | – | – | – | – | – | – | – | – | – | – | – | – | – | Number of Writhing (ICR mice [3]; 30 mg/kg): 13.4±3.1
8 | CN1CC[C@]23c4c5ccc(O)c4O[C@H]2[C@@H](O)C=C[C@H]3[C@H]1C5 [Morphine, morphine] | – | – | – | – | – | – | – | – | – | – | – | – | – | – | – | – | – | – | – | Nose-pokes (rats): 24.0±2.2; Number of Writhing (ICR mice [3]; 5 mg/kg): 10.2±2.1; Heat pain value (ICR mice [4]; 0 hr (base value before administration)): 14.0 ± 2.2 s; Heat pain value (ICR mice [4]; 0.25 hr after administration): 22.7 ± 5.1 s; Heat pain value (ICR mice [4]; 1hr after administration): 42.4 ± 5.1 s; Heat pain value (ICR mice [4]; 2 hr after administration): 29.0 ± 4.7 s; Heat pain value (ICR mice [4]; 6 hr after administration): 13.5 ± 1.2 s; Heat pain value (ICR mice [4]; 24 hr after administration): 13.8 ± 1.5 s
9 | COCCOCCOCCOCCO[C@H]1C=C[C@H]2[C@H]3Cc4ccc(O)c5c4[C@@]2(CCN3C)[C@H]1O5 [α-6-O-mPEG4-morphine, reference compound] | – | – | – | – | – | – | – | – | – | – | – | – | – | – | – | – | – | – | – | Number of Writhing (ICR mice [2]; 10 mg/kg): 12.1±2.3
10 | COc1ccc2c3c1O[C@H]1[C@@H](OCCOCCOCCOCCO[C@H]4C=C[C@H]5[C@H]6Cc7ccc(OC)c8c7[C@@]5(CCN6C)[C@H]4O8)C=C[C@H]4[C@@H](C2)N(C)CC[C@@]341 [α-6-O-PEG4-(codeine)2] | – | – | – | – | – | – | – | – | – | – | – | – | – | 1660 | 233 | 43 | 121 | 110 | 107 | Number of Writhing (ICR mice [2]; 30 mg/kg): 31.3±4.1
11 | CN1CC[C@]23c4c5ccc(O)c4O[C@H]2[C@@H](OCCOCCOCCOCCOCCO[C@H]2C=C[C@H]4[C@H]6Cc7ccc(O)c8c7[C@@]4(CCN6C)[C@H]2O8)C=C[C@H]3[C@H]1C5 [α-6-O-PEG5-(morphine)2] | 128 | 109 | 261 | 3.52 | 3.71 | 55.2 | 84 | 28.2 | 156 | 129 | 75 | 7.8 | 2.0 | 926 | 101 | 51 | 125 | 123 | 95 | –
12 | CN1CC[C@]23c4c5ccc(O)c4O[C@H]2[C@@H](OCCOCCOCCOCCOCCOCCOCCOCCO[C@H]2C=C[C@H]4[C@H]6Cc7ccc(O)c8c7[C@@]4(CCN6C)[C@H]2O8)C=C[C@H]3[C@H]1C5 [α-6-O-PEG8-(morphine)2] | 188 | 162 | 221 | 10.8 | 6.83 | 84.7 | 125.2 | 7.6 | 31 | 22 | 22 | 5.2 | 3 | 1230 | 167 | 90 | 140 | 153 | 127 | –
13 | COc1ccc2c3c1O[C@H]1[C@@H](OCCOCCOCCOCCOCCOCCO[C@H]4C=C[C@H]5[C@H]6Cc7ccc(OC)c8c7[C@@]5(CCN6C)[C@H]4O8)C=C[C@H]4[C@@H](C2)N(C)CC[C@@]341 [α-6-O-PEG6-(codeine)2] | – | – | – | – | – | – | – | – | – | – | – | – | – | 1740 | 445 | 67 | 102 | 100 | 97 | Number of Writhing (ICR mice [2]; 30 mg/kg): 34.1±3.3
14 | CN1CC[C@]23c4c5ccc(O)c4O[C@H]2[C@@H](OCCOCCOCCOCCO[C@H]2C=C[C@H]4[C@H]6Cc7ccc(O)c8c7[C@@]4(CCN6C)[C@H]2O8)C=C[C@H]3[C@H]1C5 [α-6-O-PEG4-(morphine)2] | 137 | 122 | 238 | 6.12 | 4.71 | 64.3 | 94.3 | 17.1 | 81 | 70 | 47 | 6.4 | 3 | 1120 | 114 | 42 | 226 | 198 | 164 | Number of Writhing (ICR mice [2]; 10 mg/kg): 20.1±2.3
15 | COc1ccc2c3c1O[C@H]1C(=O)CC[C@@]4(O)[C@@H](C2)N(C)CC[C@]314 [Oxycodone, oxycodone] | – | – | – | – | – | – | – | – | – | – | – | – | – | – | – | – | – | – | – | Number of Writhing (ICR mice [3]; 5 mg/kg): 9.9±3.2
16 | CN1CC[C@]23c4c5ccc(O)c4O[C@H]2[C@@H](OCCOCCOCCOCCOCCOCCOCCOCCOCCO[C@H]2C=C[C@H]4[C@H]6Cc7ccc(O)c8c7[C@@]4(CCN6C)[C@H]2O8)C=C[C@H]3[C@H]1C5 [α-6-O-PEG9-(morphine)2] | 259 | 221 | 166 | 7.91 | 8.33 | 60.1 | 92 | 5.2 | 17 | 11 | 11 | 11.5 | 3.0 | 1230 | 201 | 101 | 152 | 125 | 123 | –
